This note sets out measurements from publication PMC9897478.

This experiment addresses Desulfofustis deltaproteobacterium ligand-gated ion channel (DeCLIC) (Desulfofustis deltaproteobacterium). Kind of experiment: cryo-EM structure; DeCLIC in DDM detergent micelles, pH 7, two datasets: with 10 mM Ca2+ and Ca2+-free (chelated); C5 symmetry; homopentamer.

“Desulfofustis deltaproteobacterium ligand-gated ion channel (DeCLIC) (natural protein)” returned a stoichiometry N of 5.

One may read the stoichiometry N as a count of units in the complex or per binding partner.
